One data set deals with T0 soybean plants. Briefly: greenhouse spray test, leaf area damage score. As to conditions: for leaf area damage score, 25th percentile / leaf area damage score, 75th percentile / leaf area damage score, 90th percentile / leaf area damage score, Median: transgenic soybean T0 events, five days after Cmpd. 1 at 300 g AI/ha; for leaf area damage score, 25th percentile: scale 0 (no damage) to 100 (complete bleaching). The data set is classed as in vivo. The text has this:
Tolerant green shoots were transferred to rooting media or grafted. Rooted plantlets were transferred to the greenhouse after an acclimation period. Plants containing the transgene were then sprayed with HPPD inhibitor herbicides, as for example with mesotrione at a rate of 300-600 g AI/ha, or with Cmpd. 1 (2-chloro-3-(methylsulfanyl)-N-(1-methyl-1H-tetrazol-5-yl)-4-(trifluoromethyl)-benzamide) at a rate of 150 g-300 g AI/ha supplemented with ammonium sulfate and methyl ester rapeseed oil. Five to ten days after the application, the symptoms due to the application of the herbicide were evaluated and compared to the symptoms observed on wild-type plants under the same conditions. For example, T0 soybean plants having a “plant expression cassette”, which includes an HPPD inhibitor tolerant HPPD polypeptide of the present invention, were tested towards the tolerance of Cmpd. 1. Prior greenhouse trials with the transgenic plants, soybean transformants were routinely analyzed for the expression and presence of the transgenes using the ELISA protein detection method (see detailed description under item D and H). Only plants recovering in the selection media and having a detectable HPPD transgene protein expression were used for the herbicide tolerance analysis. A DeVries Tracker Sprayer was calibrated prior to each spraying. The chemical formulation used for Cmpd. 1 was supplemented with ammonium sulfate and methylated rape seed oil. Spray tests were conducted with a concentration, which equals to 300 grams AI per hectare (300 g AI/ha).
In greenhouse trials, independent T0 soybean events containing an exemplary mutant HPPD polypeptide were sprayed with the HPPD inhibitor herbicide Cmpd. 1 (2-chloro-3-(methylsulfanyl)-N-(1-methyl-1H-tetrazol-5-yl)-4-(trifluoromethyl)benzamide) at the rate of 300 grams AI/ha, supplemented with ammonium sulfate and methyl ester rapeseed oil. Five days after the application, the leaf damaged area due to the HPPD inhibitor herbicide is scored in a scale from 0 (no damage) to 100 (complete bleaching). Under those conditions, the wild-type plants were completely bleached and their damage scores were in the 95-100 range.
Table 5 presents the distribution of the HPPD inhibitor herbicide damage score data as percentile for exemplary mutant HPPD inhibitor herbicide tolerant polypeptides (SEQ ID NOs). The percentiles normalize ranks of the damage score from an individual plant in a population. […] The median is the 50th percentile. Half the values had higher damage scores; half had lower damage scores. The value of the 75th and 90th percentile is the damage score where 75% and 90% of the soybean events had lower damage scores, respectively. The difference between the 75th and 25th percentile is called the interquartile range and a marker to quantify scattering in the population. All constructs had only one single cassette insertion in the soybean genome.

The subject of the next data set is HPPD polypeptides. Briefly: coupled HPPD activity assay: turnover and residual turnover in crude extracts. As to conditions: for turnover / residual turnover in the presence of Cmpd. 1 compared with a reference HPPD polypeptide, in words: comparison with the reference or parent polypeptide. The data set is classed as biochemical, Pseudomonas fluorescens.

In the case of `CSc1c(C(F)(F)F)ccc(C(=O)Nc2nnnn2C)c1Cl` [Cmpd. 1, 2-chloro-3-(methylsulfanyl)-N-(1-methyl-1H-tetrazol-5-yl)-4-(trifluoromethyl)benzamide, reference compound], the “leaf damage score of wild-type plants” value in the data set with T0 soybean plants (wild-type soybean plants, 300 grams AI/ha, five days after application, scale 0-100) is recorded as 95-100. In the data set on HPPD polypeptides (absence of Cmpd. 1, high substrate concentration, kinetic changes in absorbance (OD) at 320 nm, 30 min), the Turnover is reported as 0.203. Besides, in the data set on HPPD polypeptides (presence of 100 μM Cmpd. 1, high substrate concentration, changes in absorbance (OD) at 320 nm), the Residual turnover is 0.021.

B1: SEQ ID NO: 47: mutant PfHPPD: 268A 270N 335P 336H 337S 340V 344Q 345M (protein)
chain: MADLYENPMGLMGFEFIEFASPTPGTLEPIFEIMGFTKVATHRSKNVHLYRQGEINLILNNEPNSIASYFAAEHGPSVCGMAFRVKDSQKAYNRALELGAQPIHIDTGPMELNLPAIKGIGGAPLYLIDRFGEGSSIYDIDFVYLEGVERNPVGAGLKVIDHLTHNVYRGRMVYWANFYEKLFNFREARYFDIKGEYTGLTSKAMSAPDGMIRIPLNEESSKGAGQIEEFLMQFNGEGIQHVAFLTDDLVKTWDALKKIGMRFMTAPADNYYEMLEGRLPDHGEPVDQLQARGILLDGSSVEGDKRLLLQIFSETLMGPVFFEFIQRKGDDGFGPHSFKVLFEQMERDQVRRGVLTAD
modifications: mutant HPPD polypeptide
notes: mutant PfHPPD: 268A 270N 335P 336H 337S 340V 344Q 345M
Take B1: in the data set with T0 soybean plants, the “leaf area damage score, 25th percentile” value was found to be 5.0. Moreover, in the data set on T0 soybean plants (scale 0-100), the “leaf area damage score, 75th percentile” value is 15.0; the “leaf area damage score, 90th percentile” value was found to be 51.0; the “leaf area damage score, Median” value is given as 15.0. Besides, the “turnover / residual turnover in the presence of Cmpd. 1 compared with a reference HPPD polypeptide, in words” value in the data set on HPPD polypeptides is “significant increase in the residual turnover”.

B2: SEQ ID NO: 2: prior art mutant HPPD polypeptide (WO2014/043435): 335P 336W 339A 340Q (protein)
chain: MADLYENPMGLMGFEFIEFASPTPGTLEPIFEIMGFTKVATHRSKNVHLYRQGEINLILNNEPNSIASYFAAEHGPSVCGMAFRVKDSQKAYNRALELGAQPIHIDTGPMELNLPAIKGIGGAPLYLIDRFGEGSSIYDIDFVYLEGVERNPVGAGLKVIDHLTHNVYRGRMVYWANFYEKLFNFREARYFDIKGEYTGLTSKAMSAPDGMIRIPLNEESSKGAGQIEEFLMQFNGEGIQHVAFLTDDLVKTWDALKKIGMRFMTAPPDTYYEMLEGRLPDHGEPVDQLQARGILLDGSSVEGDKRLLLQIFSETLMGPVFFEFIQRKGDDGFGPWNFAQLFESIERDQVRRGVLTAD
modifications: mutant HPPD polypeptide
notes: prior art mutant HPPD polypeptide (WO2014/043435): 335P 336W 339A 340Q
As to B2, the “leaf area damage score, 25th percentile” value with T0 soybean plants was 15.0. Further, in the data set with T0 soybean plants (scale 0-100), the “leaf area damage score, 75th percentile” value came out at 45.0; the “leaf area damage score, 90th percentile” value is listed as 87.0; the “leaf area damage score, Median” value was 20.0.

B3: SEQ ID NO: 68: mutant PfHPPD: 268A 270S 315Q 335P 336H 337S 340V 344Q 345M (protein)
chain: MADLYENPMGLMGFEFIEFASPTPGTLEPIFEIMGFTKVATHRSKNVHLYRQGEINLILNNEPNSIASYFAAEHGPSVCGMAFRVKDSQKAYNRALELGAQPIHIDTGPMELNLPAIKGIGGAPLYLIDRFGEGSSIYDIDFVYLEGVERNPVGAGLKVIDHLTHNVYRGRMVYWANFYEKLFNFREARYFDIKGEYTGLTSKAMSAPDGMIRIPLNEESSKGAGQIEEFLMQFNGEGIQHVAFLTDDLVKTWDALKKIGMRFMTAPADSYYEMLEGRLPDHGEPVDQLQARGILLDGSSVEGDKRLLLQIFSEQLMGPVFFEFIQRKGDDGFGPHSFKVLFEQMERDQVRRGVLTAD
modifications: mutant HPPD polypeptide
notes: mutant PfHPPD: 268A 270S 315Q 335P 336H 337S 340V 344Q 345M
For the molecule B3, in the data set on T0 soybean plants, the “leaf area damage score, 25th percentile” value was 5.0. For the same molecule, in the data set with T0 soybean plants (scale 0-100), the “leaf area damage score, 75th percentile” value stood at 16.3; the “leaf area damage score, 90th percentile” value amounted to 20.0; the “leaf area damage score, Median” value is given as 10.0. The “turnover / residual turnover in the presence of Cmpd. 1 compared with a reference HPPD polypeptide, in words” value in the data set on HPPD polypeptides was “increase significantly the turnover and the residual turnover”.

B4: SEQ ID NO: 69: mutant PfHPPD: 268A 270S 315R 335P 336H 337S 340V 344Q 345M (protein)
chain: MADLYENPMGLMGFEFIEFASPTPGTLEPIFEIMGFTKVATHRSKNVHLYRQGEINLILNNEPNSIASYFAAEHGPSVCGMAFRVKDSQKAYNRALELGAQPIHIDTGPMELNLPAIKGIGGAPLYLIDRFGEGSSIYDIDFVYLEGVERNPVGAGLKVIDHLTHNVYRGRMVYWANFYEKLFNFREARYFDIKGEYTGLTSKAMSAPDGMIRIPLNEESSKGAGQIEEFLMQFNGEGIQHVAFLTDDLVKTWDALKKIGMRFMTAPADSYYEMLEGRLPDHGEPVDQLQARGILLDGSSVEGDKRLLLQIFSERLMGPVFFEFIQRKGDDGFGPHSFKVLFEQMERDQVRRGVLTAD
modifications: mutant HPPD polypeptide
notes: mutant PfHPPD: 268A 270S 315R 335P 336H 337S 340V 344Q 345M
As to B4, the “leaf area damage score, 25th percentile” value with T0 soybean plants came to 20.0. Further, in the data set with T0 soybean plants (scale 0-100), the “leaf area damage score, 75th percentile” value was 25.0; the “leaf area damage score, 90th percentile” value worked out at 42.0; the “leaf area damage score, Median” value stood at 20.0. For the same molecule, the “turnover / residual turnover in the presence of Cmpd. 1 compared with a reference HPPD polypeptide, in words” value with HPPD polypeptides was “increase significantly the turnover and the residual turnover”.

B5: SEQ ID NO: 70: mutant PfHPPD: 213K 268A 270S 315Q 335P 336H 337S 340V 344Q 345M (protein)
chain: MADLYENPMGLMGFEFIEFASPTPGTLEPIFEIMGFTKVATHRSKNVHLYRQGEINLILNNEPNSIASYFAAEHGPSVCGMAFRVKDSQKAYNRALELGAQPIHIDTGPMELNLPAIKGIGGAPLYLIDRFGEGSSIYDIDFVYLEGVERNPVGAGLKVIDHLTHNVYRGRMVYWANFYEKLFNFREARYFDIKGEYTGLTSKAMSAPDGMIKIPLNEESSKGAGQIEEFLMQFNGEGIQHVAFLTDDLVKTWDALKKIGMRFMTAPADSYYEMLEGRLPDHGEPVDQLQARGILLDGSSVEGDKRLLLQIFSEQLMGPVFFEFIQRKGDDGFGPHSFKVLFEQMERDQVRRGVLTAD
modifications: mutant HPPD polypeptide
notes: mutant PfHPPD: 213K 268A 270S 315Q 335P 336H 337S 340V 344Q 345M
Consider B5, for which, in the data set with T0 soybean plants, the “leaf area damage score, 25th percentile” value came out at 10.0. Further, in the data set with T0 soybean plants (scale 0-100), the “leaf area damage score, 75th percentile” value is given as 25.0; the “leaf area damage score, 90th percentile” value turned out to be 35.0; the “leaf area damage score, Median” value amounted to 15.0. Besides, the “turnover / residual turnover in the presence of Cmpd. 1 compared with a reference HPPD polypeptide, in words” value in the data set on HPPD polypeptides was “increase significantly the turnover and the residual turnover”.

B6: SEQ ID NO: 66: mutant PfHPPD: 213K 268A 270S 335P 336H 337S 340V 344Q 345M (protein)
chain: MADLYENPMGLMGFEFIEFASPTPGTLEPIFEIMGFTKVATHRSKNVHLYRQGEINLILNNEPNSIASYFAAEHGPSVCGMAFRVKDSQKAYNRALELGAQPIHIDTGPMELNLPAIKGIGGAPLYLIDRFGEGSSIYDIDFVYLEGVERNPVGAGLKVIDHLTHNVYRGRMVYWANFYEKLFNFREARYFDIKGEYTGLTSKAMSAPDGMIKIPLNEESSKGAGQIEEFLMQFNGEGIQHVAFLTDDLVKTWDALKKIGMRFMTAPADSYYEMLEGRLPDHGEPVDQLQARGILLDGSSVEGDKRLLLQIFSETLMGPVFFEFIQRKGDDGFGPHSFKVLFEQMERDQVRRGVLTAD
modifications: mutant HPPD polypeptide
notes: mutant PfHPPD: 213K 268A 270S 335P 336H 337S 340V 344Q 345M
For the molecule B6, the “leaf area damage score, 25th percentile” value in the data set with T0 soybean plants was determined as 5.0. Also, in the data set on T0 soybean plants (scale 0-100), the “leaf area damage score, 75th percentile” value worked out at 25.0; the “leaf area damage score, 90th percentile” value is recorded as 41.0; the “leaf area damage score, Median” value is 10.0. Also, the “turnover / residual turnover in the presence of Cmpd. 1 compared with a reference HPPD polypeptide, in words” value in the data set with HPPD polypeptides was “increase significantly the turnover and the residual turnover”.

(Values after patent publication US11180770B2, “HPPD variants and methods of use” (BASF Agricultural Solutions Seed US LLC, priority 2017, dated 2021).)
